Results on nine molecules are retold here after US20250019450A1.

The target in experiment [1] is human IL-12RB2 with C-terminal HA tag, transiently expressed on HEK-293T cells (human) (UniProt Q99665). Nature of the experiment: FACS, periplasmic extract, HEK-293T.
In experiment [2] the target is human IL-12Rβ2-huFc-his (R&D system), biotinylated (human) (UniProt Q99665). The experiment is described as follows: ELISA, periplasmic extract. (In an ELISA, binding on a coated surface is turned into a signal by an enzyme label.)
Sequence of human IL-12Rβ2-huFc-his (R&D system), biotinylated (human) (Q99665 24-622 limits assumed): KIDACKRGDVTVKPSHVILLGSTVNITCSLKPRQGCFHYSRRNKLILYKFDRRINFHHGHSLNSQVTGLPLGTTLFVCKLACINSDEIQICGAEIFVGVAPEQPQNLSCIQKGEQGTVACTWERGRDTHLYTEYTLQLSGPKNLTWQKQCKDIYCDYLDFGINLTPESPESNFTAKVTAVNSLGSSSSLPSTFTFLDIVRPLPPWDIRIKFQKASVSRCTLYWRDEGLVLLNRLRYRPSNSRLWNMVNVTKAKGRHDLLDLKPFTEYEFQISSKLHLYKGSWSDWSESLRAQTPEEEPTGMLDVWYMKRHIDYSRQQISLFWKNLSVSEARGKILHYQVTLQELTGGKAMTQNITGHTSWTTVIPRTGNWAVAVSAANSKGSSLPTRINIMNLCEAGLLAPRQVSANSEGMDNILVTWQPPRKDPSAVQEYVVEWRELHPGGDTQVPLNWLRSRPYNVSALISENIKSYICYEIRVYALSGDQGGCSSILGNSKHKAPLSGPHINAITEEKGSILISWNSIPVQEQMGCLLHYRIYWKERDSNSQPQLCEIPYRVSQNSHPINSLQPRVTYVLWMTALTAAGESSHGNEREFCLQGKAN
Experiment [3] has as its target cyno IL-12RB2 with C-terminal HA tag, transiently expressed on HEK-293T cells (cyno). The experiment is described as follows: FACS, periplasmic extract, HEK-293T. Background: Flow cytometry measures light scatter and fluorescence of single cells or particles in a stream.

Sequence of human IL-12RB2 with C-terminal HA tag, transiently expressed on HEK-293T cells (human) (Q99665 24-862): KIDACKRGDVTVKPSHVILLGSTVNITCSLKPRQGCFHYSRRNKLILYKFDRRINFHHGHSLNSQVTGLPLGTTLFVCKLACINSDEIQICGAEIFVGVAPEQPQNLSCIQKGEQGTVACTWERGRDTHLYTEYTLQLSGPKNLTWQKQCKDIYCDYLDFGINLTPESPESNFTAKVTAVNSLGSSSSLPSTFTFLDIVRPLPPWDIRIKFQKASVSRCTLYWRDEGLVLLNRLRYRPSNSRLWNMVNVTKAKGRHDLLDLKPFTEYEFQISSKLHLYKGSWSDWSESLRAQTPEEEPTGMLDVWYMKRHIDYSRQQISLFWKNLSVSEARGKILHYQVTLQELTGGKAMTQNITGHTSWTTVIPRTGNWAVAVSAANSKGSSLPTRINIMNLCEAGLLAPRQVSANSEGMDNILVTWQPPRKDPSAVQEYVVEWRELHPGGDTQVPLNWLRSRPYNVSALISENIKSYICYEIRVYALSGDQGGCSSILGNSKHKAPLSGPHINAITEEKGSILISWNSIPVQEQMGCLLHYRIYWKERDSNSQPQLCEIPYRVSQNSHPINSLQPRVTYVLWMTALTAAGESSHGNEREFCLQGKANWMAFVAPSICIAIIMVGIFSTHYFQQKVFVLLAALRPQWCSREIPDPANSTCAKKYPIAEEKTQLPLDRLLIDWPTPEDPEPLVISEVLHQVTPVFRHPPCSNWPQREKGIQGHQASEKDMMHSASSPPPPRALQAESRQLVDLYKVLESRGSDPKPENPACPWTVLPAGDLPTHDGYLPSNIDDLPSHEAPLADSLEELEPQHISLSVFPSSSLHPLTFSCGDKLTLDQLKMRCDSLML
Sequence of cyno IL-12RB2 with C-terminal HA tag, transiently expressed on HEK-293T cells (cyno) (chain, as listed by the source): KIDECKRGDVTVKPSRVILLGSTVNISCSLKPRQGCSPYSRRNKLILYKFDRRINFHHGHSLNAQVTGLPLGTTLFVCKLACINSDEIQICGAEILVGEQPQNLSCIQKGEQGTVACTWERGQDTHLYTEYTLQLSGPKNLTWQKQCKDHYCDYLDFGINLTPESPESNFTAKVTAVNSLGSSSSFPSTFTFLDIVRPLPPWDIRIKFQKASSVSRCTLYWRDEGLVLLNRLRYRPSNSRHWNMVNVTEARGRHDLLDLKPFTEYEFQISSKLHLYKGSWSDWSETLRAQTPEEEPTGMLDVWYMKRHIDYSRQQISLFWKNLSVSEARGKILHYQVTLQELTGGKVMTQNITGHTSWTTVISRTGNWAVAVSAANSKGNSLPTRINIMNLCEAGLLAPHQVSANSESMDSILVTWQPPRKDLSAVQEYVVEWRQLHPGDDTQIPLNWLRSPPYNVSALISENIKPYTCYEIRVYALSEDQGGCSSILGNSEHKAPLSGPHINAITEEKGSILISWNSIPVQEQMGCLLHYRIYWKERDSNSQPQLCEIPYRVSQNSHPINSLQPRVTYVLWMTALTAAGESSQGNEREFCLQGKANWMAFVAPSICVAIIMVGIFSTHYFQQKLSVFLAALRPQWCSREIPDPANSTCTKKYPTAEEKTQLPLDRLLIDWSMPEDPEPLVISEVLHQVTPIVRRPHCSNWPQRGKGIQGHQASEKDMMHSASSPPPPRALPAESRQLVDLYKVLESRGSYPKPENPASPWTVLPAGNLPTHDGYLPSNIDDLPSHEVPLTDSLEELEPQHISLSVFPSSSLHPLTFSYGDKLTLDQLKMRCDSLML

B1: VHH241B2 (VHH)
VHH: QVQLVESGGGLVQLGDSLRLSCAASGRGFSSWTMAWFRQALGKRREFVAAITATGARTCSAESEGRFTISRDNAKNMVFLQMNSLKAEDTAVYYCAATGIASWDPGMADKYTYWGQGTQVTVSS
The molecule B1 yielded an FOB in experiment [1] of 1.63 fold. Also, the OD450 nm in experiment [2] is 0.139.

B2: VHH277B2 (VHH)
VHH: QVQLVESGGGLVQLGDSLRLSCAASGRGFSSWTMAWFRQALGKRREFVAAITATGARTCSAESEGRFTISRDNAKNMVFLQMNSLKAEDTAVYYCAATEIAGWDPGMGDKYPYWGQGTQVTVSS
In experiment [2], B2 returned an OD450 nm of 0.137.

B3: VHH216B2 (VHH)
VHH: QVQLVESGGGLVQPGGSLRLSCATSEHTFGTYRMGWFRQAPGKEREFVAGISWTGQTTYYAASVKGRFAISKDNAKNTVYLQMNTLKSDDTAVYYCAVETNNLGRWDRPSEYDYWGQGTQVTVSS
In experiment [1], B3 showed an FOB of 0.99 fold. Besides, the OD450 nm in experiment [2] was determined as 0.586.

B4: VHH211B2 (VHH)
VHH: QVQLVESGGGLVQAGNSLRLSCAASGRTFSSYVVGWFRQAPGKEREFVGRISWSGARTYYADSVKGRFTISRDNAKNTVYLQMNSLKPEDTAVYYCAADLKWEVLLSEHFEYWGQGTQVTVSS
In turn, B4 had an OD450 nm in experiment [2] of 0.227.

B5: VHH219B2 (VHH)
VHH: QVQLEESGGGLVQAGGSLRLSCAASGRTFSSYVVGWFRQAPGKEREFVGRISWSGARTYYADSVEGRFTISRDNAKNTVYLQMNSLKPEDTAVYYCAADLKWEVLLSEHYEYWGQGTQVTVSS
In experiment [1], B5 gave an FOB of 1.54 fold.

B6: VHH229B2 (VHH)
VHH: QVQLVESGGGLVQAGGSLRLSCAASGRTFSSYAMGWFRQAPGKEREFVSAISWNGGSRYYVESVEGRFTISRDNAKNTVYLQMNSLKPEDTAVYYCAASRIYTNYVARSYEYDDWGQGTQVTVSS
On to B6, for which the OD450 nm in experiment [2] came out at 0.138.

B7: VHH230B2 (VHH)
VHH: QVQLVESGGGLVQAGGSLRLSCAASGRTFSSYAMGWFRQAPGKEREFVSAISWSGLSTYYVESVQGRFTISRDNAKNTVYLQMNSLKPEDTAVYYCAASRIYTNYVARSYEYDDWGQGTQVTVSS
In the case of B7, the FOB in experiment [3] worked out at 1.66 fold.

B8: VHH93B2 (VHH)
VHH: QVQLVESGGGLVQPGGSLRLSCAASGFTFEPYDMSWFRQAPGKGPEWVSAIDKGGGAGATYYADSVKGRFTISRDNAKKTLYLQMKSLKPEDTAVYYCAITAGPYSDSTPRVAYRGEGTQVTVSS
Turning to B8, the FOB in experiment [1] is 1.98 fold.

B9: VHH356B2 (VHH)
VHH: QLQLVESGGGLVQPGGSLRLSCAASGSIFSINAMGWYRQAPGKQRELVAAITSGGSTAYADSVKGRFTISRDNAKNTVYLQMNSLKPEDTAVYYCNADRDPITSWYVRGDYWGQGTQVTVSS
On to B9, for which the FOB in experiment [3] was found to be 2 fold.
